This passage reports Cytometry (% inhibition), peptide concentration and Bioassay (% inhibition) of TGFβ1 activity: growth of MV-1-Lu cells, TGFβ1 200 pg/ml, peptide 200 µg/ml results from patent publication US20070014767A1.

In test [1] the target is TGFβ1 (human recombinant) (human) (UniProt P01137). Put plainly: flow cytometry; inhibition of binding of TGFβ1-biotin to MV-1-Lu cell receptors, peptide 420 µg/ml, peptide incubated with TGFβ1-biotin.
For test [2] the target is unchanged. Description: affinity labelling of MV-1-Lu cells with 125I-TGFβ1, titration of P144. The note with it: scale: times the molar concentration of 125I-TGFβ1.
Test [3] has the same target. Description: cell-based or functional assay.
For test [4], the target named is TGFβ1 cell receptors on MV-1-Lu cells (mink). Description: cell-based or functional assay.
Test [5] has the same target. Put plainly: flow cytometry; inhibition of binding of TGFβ1-biotin to MV-1-Lu cell receptors, peptide 420 µg/ml, peptide incubated with the cells.

TGFβ1 (human recombinant) (human), sequence (P01137 279-390 limits assumed): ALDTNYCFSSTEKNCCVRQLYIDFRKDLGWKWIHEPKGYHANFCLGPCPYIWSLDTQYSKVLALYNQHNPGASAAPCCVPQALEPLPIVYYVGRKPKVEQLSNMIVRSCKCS

For the molecule peptide P144(729-742), in test [1], the Cytometry (% inhibition) amounted to 80%. Moreover, the peptide concentration at which inhibition of 125I-TGFβ1 binding to the cell receptors is lost in test [2] came to 200000. In addition, the Bioassay (% inhibition) of TGFβ1 activity: growth of MV-1-Lu cells, TGFβ1 200 pg/ml, peptide 200 µg/ml in test [3] worked out at 88%.
Turning to FCLGPCPYIWSLDTA [peptide P12(322-335)], the Bioassay (% inhibition) of TGFβ1 activity: growth of MV-1-Lu cells, TGFβ1 200 pg/ml, peptide 200 µg/ml in test [4] turned out to be 96%. The Cytometry (% inhibition) in test [5] stood at 77%.
Consider HEPKGYHANFCLGPCPYIWSLDT [peptide P29(313-335)], for which the Bioassay (% inhibition) of TGFβ1 activity: growth of MV-1-Lu cells, TGFβ1 200 pg/ml, peptide 200 µg/ml in test [4] was 77.6%. This molecule also returned a Cytometry (% inhibition) in test [5] of 92.3%.
On the same counts, the results for LYNQHNPGASAAPCCA [peptide P18(343-358)] are 18.2% and 6.5%.
As to HANFCLGPCPYIWSLA [peptide P11(319-333)], in test [4], the Bioassay (% inhibition) of TGFβ1 activity: growth of MV-1-Lu cells, TGFβ1 200 pg/ml, peptide 200 µg/ml worked out at 40%. Moreover, the Cytometry (% inhibition) in test [5] amounted to 86%.
